As usually defined, the Kd is the equilibrium constant for the complex coming apart.

This assay concerns the target F-actin (Sus scrofa). In words: co-sedimentation.

Where “and” joins values, the source holds several entries; their conditions need not be identical. Equal entries are not always repeated.

B1: titin N2A Ig80-IS-Ig81-Ig82-Ig83 (protein)
chain: SIRVVEKTTATFIAKVGGDPIPNVKWTKGKWRQLNQGGRILIHQKGDEAKLEIRDTTKTDSGLYRCVAFNKHGEIESNVNLQVDERKKQEKIEGDLRAMLKKTPALKKGSGEEEEIDIMELLKNVDPKEYEKYARMYGITDFRGLLQAFELLKQSQEEETHRLEIEELEKSERDEKEFEELVAFIQQRLTQTEPVTLIKDIENQTVLKDNDAIFEIDIKINYPEIKLSWYKGTEKLEPSNKYEISIDGDRHTLRVKNCQPKDQGNYRLVCGPHIASAKLTVIEPAWERHLQDVTLKEGQTCTMTCQFSVPNVKSEWFRNGRVLKPQGRVKTEVEHKVHKLTIADVRAEDQGQYTCKHEDLETSAELRIEAEPIQFTKRIQNIVVSEHQSATFECEVSFDDAIVTWYKGPTELTESQKYNFRNDGRCHYMTIHNVTPDDEGVYSVIARLEPRGEARSTAELYLTTKEIKLEMKPPDIPDSRVPIPTMPIRAVPPEEIPPAVAPSIPLLLPLP
For the molecule B1, the Kd is ~17 µM and ~7 µM.

These data come from paper PMC6167357 (2018).
